For this assay, the target named is recombinant PRCP51 (recombinant human prolylcarboxypeptidase, predicted molecular mass 51 kDa) (human) (UniProt P42785). Briefly: cell-based or functional assay.
Chain of recombinant PRCP51 (recombinant human prolylcarboxypeptidase, predicted molecular mass 51 kDa) (human) (P42785 46-496 limits assumed): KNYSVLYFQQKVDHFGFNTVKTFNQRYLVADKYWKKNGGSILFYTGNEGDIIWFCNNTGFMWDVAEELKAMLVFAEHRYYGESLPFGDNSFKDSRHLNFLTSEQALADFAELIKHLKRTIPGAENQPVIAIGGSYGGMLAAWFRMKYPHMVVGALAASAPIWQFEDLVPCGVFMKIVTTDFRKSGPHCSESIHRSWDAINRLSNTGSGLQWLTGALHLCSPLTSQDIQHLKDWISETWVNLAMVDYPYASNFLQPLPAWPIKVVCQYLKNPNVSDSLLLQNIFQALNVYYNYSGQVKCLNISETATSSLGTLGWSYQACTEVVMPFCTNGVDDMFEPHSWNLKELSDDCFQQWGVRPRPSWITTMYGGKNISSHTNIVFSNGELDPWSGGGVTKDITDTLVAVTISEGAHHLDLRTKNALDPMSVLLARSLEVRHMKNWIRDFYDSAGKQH

Regarding “angiotensinogen II (AgII) (from UniProt P01019 25-32) (peptide)”, the inhibition of rPRCP51-induced prekallikrein (PK) activation (residual kallikrein activity on S2302), IC50 is 150 µM.

(Values after patent US20080194485A1, “Detection and Use of Prolylcarboxypeptidase” (YALE UNIVERSITY, priority 2004, published 2008).)
